Assay [1] addresses T1, cleaved high molecular weight kininogen (HMWK) (human, UniProt P01042 19-380; P01042 390-644).
T1 construct: also called cleaved HMWK; 2-chain HMWK
T1 sequence 1: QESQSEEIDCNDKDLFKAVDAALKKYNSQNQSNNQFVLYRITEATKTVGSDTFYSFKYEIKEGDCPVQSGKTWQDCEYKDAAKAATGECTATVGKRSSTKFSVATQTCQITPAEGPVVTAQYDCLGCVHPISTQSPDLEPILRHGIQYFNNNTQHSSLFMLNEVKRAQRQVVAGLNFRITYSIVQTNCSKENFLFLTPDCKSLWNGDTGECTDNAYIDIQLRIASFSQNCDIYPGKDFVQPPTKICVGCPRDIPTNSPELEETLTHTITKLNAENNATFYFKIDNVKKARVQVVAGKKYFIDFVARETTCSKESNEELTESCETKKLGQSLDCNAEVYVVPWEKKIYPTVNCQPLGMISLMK
T1 sequence 2: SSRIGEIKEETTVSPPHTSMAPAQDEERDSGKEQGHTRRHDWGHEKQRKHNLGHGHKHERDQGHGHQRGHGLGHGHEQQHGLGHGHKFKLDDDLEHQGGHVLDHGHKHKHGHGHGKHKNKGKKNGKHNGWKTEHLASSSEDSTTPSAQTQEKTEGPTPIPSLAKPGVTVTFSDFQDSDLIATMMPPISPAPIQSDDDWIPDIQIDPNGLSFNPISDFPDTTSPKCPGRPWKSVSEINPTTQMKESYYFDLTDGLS
The assay can be described thus: sandwich ELISA with coated Fab; value = C, midpoint of the printed 4-P fit; 2-chain HMWK spiked into HMWK-deficient plasma, analysed in 2.5% plasma. The text has this:
Purified cleaved HMWK was spiked into SBT assay buffer (open circles), SBT assay buffer and analyzed in the presence of 10% plasma (squares), or HMWK-deficient plasma and analyzed in the presence of 10% plasma (triangles). Purified cleaved HMWK was also spiked into assay buffer and analyzed in the presence of 2.5% plasma (diamonds) or HMWK deficient plasma and analyzed in the presence of 2.5% plasma (closed circles). The y-axis presents the ELISA signal in absorbance units, and the x-axis presents the concentration of kininogen in μg/mL.
The following day, the plate was washed and then blocked with 2% BSA (Protease/IgG free) in PBS buffer. Following a wash, samples containing cleaved HMWK in 0.1% BSA buffer in PBS with 0.05% Tween-20 (2-Chain HMWK assay buffer). Purified protein standards (e.g., 2-chain HMWK, intact HMWK or LMWK) were spiked into HMWK-deficient plasma and diluted 1:320 in 2-chain HMWK assay buffer. Following plate washing with PBST, a mixture of 2 mouse monoclonal antibodies (11H05 and 13B12) at 1 μg/mL in 2-chain HMWK assay buffer were added for 1 hour at room temperature. […] Signal was detected by the addition of 3,3′,5,5′-tetramethylbenzidine (TMB), an HRP substrate. […] Hydrolysis of a TMB substrate was detected using a microplate reader at 450 nm-630 nm (FIG. 3). […] Using these immunoassay conditions, specifically binding to cleaved HMWK was detected.
Background: ELISA stands for enzyme-linked immunosorbent assay.

In assay [2] the target is T1, cleaved high molecular weight kininogen …. The assay can be described thus: 2-chain HMWK sandwich ELISA standard curve, citrated plasma spiked with 2-chain HMWK, 10% final dilution; capture Fab M0004-B04 as in FIG. 12 B.

What is called EC50 is the concentration at which the effect is half-maximal. A word on the EC50 (read off the curve): it is the concentration that produces a half-maximal response. Lower therefore signals an effect from little substance.

B1: 559B-M0004-B04 (Fab, V domains shown)
VH: EVQLLESGGGLVQPGGSLRLSCAASGFTFSFYVMVWVRQAPGKGLEWVSGISPSGGNTAYADSVKGRFTISRDNSKNTLYLQMNSLRAEDTAVYYCARKLFYYDDTKGYFDFWGQGTLVTVSS
VL: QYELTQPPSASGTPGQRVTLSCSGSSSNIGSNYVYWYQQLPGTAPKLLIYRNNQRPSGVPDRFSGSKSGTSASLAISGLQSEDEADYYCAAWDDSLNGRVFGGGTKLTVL
notes: also called M004-B04
In turn, B1 returned an EC50 in assay [1] of 184 µg/mL. The “EC50 (read off the curve)” value in assay [2] was around 0.1 µg/mL.

The values above are taken from patent US20210270842A1 (DYAX, published 2021).
